In the supplement of paper PMC7125110:
± gives the standard error. For some assays here: Fewer inactive variants are shown than the library holds.

B1: glmS ribozyme (parent)
chain: AUAAAAGCGCCAGAACUACAGAAAUGUAGUUGACGAGGAGGAGGUUUAUCGAAUUUUCGGCGGAUGCCUCCAAA

What was measured:
Details in all cases: with glucosamine-6-phosphate
glucosamine-6-phosphate [1] = variants of: B1; assay: kcat; higher = faster cleavage; RNA array
Outline: (§1)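 The measurements used barcoded ribozyme variants on sequenced MiSeq chips, transcribed in situ by E. coli RNA polymerase and tracked at 37 °C with a hybridised Cy3 probe. Glucosamine-6-phosphate, 40 μM to 10 mM in HEPES/KCl/Mg(OAc)2 buffer, was flowed in while tiles were imaged over ~14 h. Baseline-normalised signals, also normalised to non-cleaving reference variants, gave per-tile medians that were fit to one- or two-exponential decays for kobs. kcat and KM resulted from weighted Michaelis–Menten fits across concentrations.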

glucosamine-6-phosphate [2] = variants of: B1; assay: KM; higher = weaker cofactor use; RNA array
Outline: as §1

glucosamine-6-phosphate [3] = variants of: B1; assay: self-cleavage kobs at 640 uM GlcN6P; higher = faster cleavage; RNA array
Outline: as §1

glucosamine-6-phosphate [4] = variants of: B1; assay: self-cleavage kobs at 2500 uM GlcN6P; higher = faster cleavage; RNA array
Outline: as §1

glucosamine-6-phosphate [5] = variants of: B1; assay: self-cleavage kobs at 10000 uM GlcN6P; higher = faster cleavage; RNA array
Outline: as §1

glucosamine-6-phosphate [6] = variants of: B1; assay: self-cleavage kobs at 40 uM GlcN6P; higher = faster cleavage; RNA array
Outline: as §1

glucosamine-6-phosphate [7] = variants of: B1; assay: self-cleavage kobs at 160 uM GlcN6P; higher = faster cleavage; RNA array
Outline: as §1

| Variant | kcat (glucosamine-6-phosphate [1]) | KM (glucosamine-6-phosphate [2]) | self-cleavage kobs at 640 uM GlcN6P (glucosamine-6-phosphate [3]) | self-cleavage kobs at 2500 uM GlcN6P (glucosamine-6-phosphate [4]) | self-cleavage kobs at 10000 uM GlcN6P (glucosamine-6-phosphate [5]) | self-cleavage kobs at 40 uM GlcN6P (glucosamine-6-phosphate [6]) | self-cleavage kobs at 160 uM GlcN6P (glucosamine-6-phosphate [7]) |
| --- | --- | --- | --- | --- | --- | --- | --- |
| AUAAAAGCGCCAUAACUACAGAAAUGUAGUUGACGAGGCGGAGGUUUAUCGAAUUUUCGGCGGAUGCCUCCAAA [G13U A39C] | 0.000234 ± 2e-05 s⁻¹ | 4.49 ± 0.6 mM | 2.78e-05 ± 6e-06 s⁻¹ | 8.65e-05 ± 1e-05 s⁻¹ | 0.000158 ± 2.7e-05 s⁻¹ |  |  |
| AUAAAAGCGCCAGAACUACAGAAAUGUAGUUGACGAGGGGGAGGUUUAUCGAAUUUUCGGCGGAGGCCUCCAAA [A39G U65G] | 0.0131 ± 0.0026 s⁻¹ | 3.2 ± 0.79 mM | 0.00161 ± 0.00039 s⁻¹ | 0.00553 ± 0.0018 s⁻¹ | 0.0103 ± 0.0015 s⁻¹ | 0.000177 ± 2.2e-05 s⁻¹ | 0.00068 ± 0.00014 s⁻¹ |
| AUAAAAGCGCCAGAACUACAGAAAUGUAGUUGACGAGGAGGAGGUAUAUCGAAUUUUCGGCGGAUUCCUCCAAA [U46A G66U] | 0.0037 ± 0.001 s⁻¹ | 5.94 ± 2.1 mM | 0.000412 ± 7.3e-05 s⁻¹ | 0.00111 ± 0.00027 s⁻¹ | 0.00229 ± 0.00041 s⁻¹ | 5.04e-05 ± 2.3e-05 s⁻¹ | 8.12e-05 ± 1.9e-05 s⁻¹ |
| AUAAAAGCGCCAGAACUACAGAAAUGUAGUUGACGAGGAGGAGGUUAAUCGAAUUUUCGGCGGACGCCUCCAAA [U47A U65C] | 0.000833 ± 0.00017 s⁻¹ | 2.41 ± 0.98 mM | 0.000158 ± 3.6e-05 s⁻¹ | 0.000533 ± 0.00012 s⁻¹ | 0.000645 ± 0.00011 s⁻¹ |  |  |
| AUAAAAGCGCCAGAACUACAGAAAUGUAGUUGCCGAGGAGGAGGUUUAUCGAAUUUUGGGCGGAUGCCUCCAAA [A33C C58G] | 1.09e-05 ± 3.4e-06 s⁻¹ |  |  |  |  |  |  |
| AUAAAAGCGCCAGCACUACAGAAAUGUAGUUGACGAGGAGGAGGUUUAUCGAGUUUUAGGCGGAUGCCUGCAAA [A14C A53G C58A C70G] | 3.76e-05 ± 1.2e-05 s⁻¹ |  |  |  |  |  | 5.16e-05 ± 2e-05 s⁻¹ |
| AUAAAAGCGCCAGAACUACAGAAAUGUAGUUGACGAUGAGGAGGUUUAUCCAAUUUUCGGCGGAUGCCUCCAAA [G37U G51C] | < 1e-05 s⁻¹ |  |  |  | < 1e-05 s⁻¹ |  |  |
| AUAAAAGCGCCAGAACUACAGAAAUGUAGUCGACGAUGAGGAGGUUUAUCGAAUUUUCGGCCGUUGCCUACAAA [U31C G37U G62C A64U C70A] | < 1e-05 s⁻¹ |  |  |  | < 1e-05 s⁻¹ | < 1e-05 s⁻¹ |  |
| AUAAAAGCGCUAGAACUACAGAAAUGUAGUUGACGAGGAGGAGGUUUAUCGAAUUUUCGGCGGAUGCCUCGAAA [C11U C71G] | 0.000109 ± 9.1e-06 s⁻¹ | 0.408 ± 0.15 mM | 7.07e-05 ± 1.2e-05 s⁻¹ | 8.38e-05 ± 1.2e-05 s⁻¹ | 0.000111 ± 1.2e-05 s⁻¹ |  |  |
| AUAAAAGCGCCAGAACUACAGAAAUGUAGUUGACGAGGAGGAGAUUUAUCGAAUGUUCGGCGGAUGCCUCCAAA [G44A U55G] | 0.000367 ± 0.00015 s⁻¹ |  | 0.000141 ± 3.3e-05 s⁻¹ | 0.000228 ± 4.2e-05 s⁻¹ |  |  |  |
| AUAAAAGCGCCGGAACUACAGAAAUGUAGUUGACGAGGAGGAGGUUUAUCGAAUUUUCGGCGGAAGCCUCCAAA [A12G U65A] | 0.0002 ± 5.7e-06 s⁻¹ | 3.88 ± 0.23 mM | 2.72e-05 ± 6.7e-06 s⁻¹ | 7.94e-05 ± 8.3e-06 s⁻¹ | 0.000143 ± 1.2e-05 s⁻¹ |  |  |
| AUAAAAGCGCCAGAACUACAGAAAUGUAGUUGACGAGGAGGAGGUAUAUCGAAUUUUCGGCGGAUGUCUCCAAA [U46A C67U] | 0.00326 ± 0.0007 s⁻¹ | 2.37 ± 0.78 mM | 0.000811 ± 0.00012 s⁻¹ | 0.00173 ± 0.00027 s⁻¹ | 0.00257 ± 0.00033 s⁻¹ | 9.11e-05 ± 2.1e-05 s⁻¹ | 0.000165 ± 2.9e-05 s⁻¹ |
| AUAAAAGCGCCAGUACUACAGAAAUGUAGUUGACGAGGAGGAGUUUUAUCGAAUUUUCGGCGGAUGCCUCCAAA [A14U G44U] | 7.47e-05 ± 1.1e-05 s⁻¹ | 3.31 ± 1.3 mM |  | 3.42e-05 ± 8.1e-06 s⁻¹ | 5.55e-05 ± 8.3e-06 s⁻¹ | < 1e-05 s⁻¹ |  |
| AUAAAAGCGCCAGAACUACAGAAAUGUAGUUGACGAGGAGUAGGUUUAUCGAAGUUUCGGCGGAUGCCUCCAAA [G41U U54G] | 0.000782 ± 0.00031 s⁻¹ |  | 0.000458 ± 9.3e-05 s⁻¹ | 0.00134 ± 0.00026 s⁻¹ |  | 0.000133 ± 1.6e-05 s⁻¹ | 0.000463 ± 0.00012 s⁻¹ |
| AUAAAAGCGCCAGAACUACAGAAAUGUAGUUGACGAGGAGGAGGUUUAUCGAAGUUUCCGCGGAUGCCUCCAAA [U54G G59C] | < 1e-05 s⁻¹ |  | < 1e-05 s⁻¹ |  |  |  |  |
| AUAAAAGCGCCCGAACUACAGAAAUGUAAUUGACGAGGAGGAGGUUUAUCGAAUUUUCGGCGGAUGCCUCCAAA [A12C G29A] | 0.00648 ± 0.0024 s⁻¹ |  | 0.00107 ± 0.00022 s⁻¹ | 0.00331 ± 0.00067 s⁻¹ | 0.00557 ± 0.00097 s⁻¹ | 0.000188 ± 3.3e-05 s⁻¹ | 0.000322 ± 0.00011 s⁻¹ |
| AUAAAAGCGCCAGGACUACAGAAAUGUAGUUGACGAGGAGGAGGUUUAUCGAAUUUUCGGCGGAUGCCUUCAAA [A14G C70U] | 0.0485 ± 0.02 s⁻¹ | 1.02 ± 0.47 mM | 0.0183 ± 0.0066 s⁻¹ |  |  | 0.00188 ± 0.00021 s⁻¹ | 0.00502 ± 0.002 s⁻¹ |
| AUAAAAGCGCCAGAACUACAGAAAUGUAGUUGACGAUGAGGAGGAUUAUCGAAUUUUCGGCGGAUGCCUCCAAA [G37U U45A] | < 1e-05 s⁻¹ |  |  |  |  |  | < 1e-05 s⁻¹ |
